Data taken from patent US7226791B2, “Polynucleotides encoding novel guanylate binding proteins (GBP's)” (Bristol-Myers Squibb Company, priority 2003, dated 2007).

B1: GBP-1: known guanylate binding protein family member, myc-tagged, expressed in Cos-7 cells (protein, UniProt P32455 1-589, looked up)
Guanylate-binding protein 1: MASEIHMTGPMCLIENTNGRLMANPEALKILSAITQPMVVVAIVGLYRTGKSYLMNKLAGKKKGFSLGSTVQSHTKGIWMWCVPHPKKPGHILVLLDTEGLGDVEKGDNQNDSWIFALAVLLSSTFVYNSIGTINQQAMDQLYYVTELTHRIRSKSSPDENENEVEDSADFVSFFPDFVWTLRDFSLDLEADGQPLTPDEYLTYSLKLKKGTSQKDETFNLPRLCIRKFFPKKKCFVFDRPVHRRKLAQLEKLQDEELDPEFVQQVADFCSYIFSNSKTKTLSGGIQVNGPRLESLVLTYVNAISSGDLPCMENAVLALAQIENSAAVQKAIAHYEQQMGQKVQLPTETLQELLDLHRDSEREAIEVFIRSSFKDVDHLFQKELAAQLEKKRDDFCKQNQEASSDRCSALLQVIFSPLEEEVKAGIYSKPGGYRLFVQKLQDLKKKYYEEPRKGIQAEEILQTYLKSKESMTDAILQTDQTLTEKEKEIEVERVKAESAQASAKMLQEMQRKNEQMMEQKERSYQEHLKQLTEKMENDRVQLLKEQERTLALKLQEQEQLLKEGFQKESRIMKNEIQDLQTKMRRRKAC
modifications: myc tag
B2: FLJ10961: human guanylate binding protein HGBPBMY4, AA SEQ ID NO:9 (protein, listed as Homo sapiens)
chain: MAPEIHMTGPMCLIENTNGELVANPEALKILSAITQPVVVVAIVGLYRTGKSYLMNKLAGKNKGFSLGSTVKSHTKGIWMWCVPHPKKPEHTLVLLDTEGLGDVKKGDNQNDSWIFTLAVLLSSTLVYNSMGTINQQAMDQLYYVTELTHRIRSKSSPDENENEDSADFVSFFPDFVWTLRDFSLDLEADGQPLTPDEYLEYSLKLTQGNRKLAQLEKLQDEELDPEFVQQVADFCSYIFSNSKTKTLSGGIKVNGPCLESLVLTYINAISRGDLPCMENAVLALAQIENSAAVQKAIAHYDQQMGQKVQLPAETLQELLDLHRVSEREATEVYMKNSFKDVDHLFQKKLAAQLDKKRDDFCKQNQEASSDRCSALLQVIFSPLEEEVKAGIYSKPGGYCLFIQKLQDLEKKYYEEPRKGIQAEEILQTYLKSKESVTDAILQTDQILTEKEKEIEVECVKAESAQASAKMVEEMQIKYQQMMEEKEKSYQEHVKQLTEKMERERAQLLEEQEKTLTSKLQEQARVLKERCQGESTQLQNEIQKLQKTLKKKTKRYMSHKLKI
B3: GBP-5: known guanylate binding protein family member, myc-tagged, expressed in Cos-7 cells (protein, UniProt Q96PP8 1-583, looked up)
Guanylate-binding protein 5: MALEIHMSDPMCLIENFNEQLKVNQEALEILSAITQPVVVVAIVGLYRTGKSYLMNKLAGKNKGFSVASTVQSHTKGIWIWCVPHPNWPNHTLVLLDTEGLGDVEKADNKNDIQIFALALLLSSTFVYNTVNKIDQGAIDLLHNVTELTDLLKARNSPDLDRVEDPADSASFFPDLVWTLRDFCLGLEIDGQLVTPDEYLENSLRPKQGSDQRVQNFNLPRLCIQKFFPKKKCFIFDLPAHQKKLAQLETLPDDELEPEFVQQVTEFCSYIFSHSMTKTLPGGIMVNGSRLKNLVLTYVNAISSGDLPCIENAVLALAQRENSAAVQKAIAHYDQQMGQKVQLPMETLQELLDLHRTSEREAIEVFMKNSFKDVDQSFQKELETLLDAKQNDICKRNLEASSDYCSALLKDIFGPLEEAVKQGIYSKPGGHNLFIQKTEELKAKYYREPRKGIQAEEVLQKYLKSKESVSHAILQTDQALTETEKKKKEAQVKAEAEKAEAQRLAAIQRQNEQMMQERERLHQEQVRQMEIAKQNWLAEQQKMQEQQMQEQAAQLSTTFQAQNRSLLSELQHAQRTVNNDDPC
modifications: myc tag
B4: GBP-2: known guanylate binding protein family member, myc-tagged, expressed in Cos-7 cells (protein, UniProt P32456 1-588, looked up)
Guanylate-binding protein 2: MAPEINLPGPMSLIDNTKGQLVVNPEALKILSAITQPVVVVAIVGLYRTGKSYLMNKLAGKKNGFSLGSTVKSHTKGIWMWCVPHPKKPEHTLVLLDTEGLGDIEKGDNENDSWIFALAILLSSTFVYNSMGTINQQAMDQLHYVTELTDRIKANSSPGNNSVDDSADFVSFFPAFVWTLRDFTLELEVDGEPITADDYLELSLKLRKGTDKKSKSFNDPRLCIRKFFPKRKCFVFDWPAPKKYLAHLEQLKEEELNPDFIEQVAEFCSYILSHSNVKTLSGGIPVNGPRLESLVLTYVNAISSGDLPCMENAVLALAQIENSAAVEKAIAHYEQQMGQKVQLPTETLQELLDLHRDSEREAIEVFMKNSFKDVDQMFQRKLGAQLEARRDDFCKQNSKASSDCCMALLQDIFGPLEEDVKQGTFSKPGGYRLFTQKLQELKNKYYQVPRKGIQAKEVLKKYLESKEDVADALLQTDQSLSEKEKAIEVERIKAESAEAAKKMLEEIQKKNEEMMEQKEKSYQEHVKQLTEKMERDRAQLMAEQEKTLALKLQEQERLLKEGFENESKRLQKDIWDIQMRSKSLEPIC
modifications: myc tag
B5: 4843—1: human guanylate binding protein HGBPBMY2, AA SEQ ID NO:5 (protein, listed as Homo sapiens)
chain: MESGPKMLAPVCLVENNNEQLLVNQQAIQILEKISQPVVVAIVGLYRTGKSYLMNHLAGQNHGFPLGSTVQSETKGIWMWCVPHPSKPNHTLVLLDTEGLGDVEKGDPKNDSWIFALAVLLCSTFVYNSMSTINHQALEQLHYVTELTELIKAKSSPRPDGVEDSTEFVSFFPDFLWTVRDFTLELKLNGHPITEDEYLENALKLIQGNNPRVQTSNFPRECIRRFLPKRKCFVFDRPTNDKDLLANIEKVSEKQLDPKFQEQTNIFCSYIFTHARTKTLREGITVTGNRLGTLAVTYVEAINSGAVPCLENAVITLAQRENSAAVQRASDYYSQQMAQRVKFPTDTLQELLDVHAACEREAIAIFMEHSFKDENQEFQKKFMETTMNKKGDFLLQNEESSVQYCQAKLNELSKGLMESISAGSFSVPGGHKLYMETKERIEQDYWQVPRKGVKAKEVFQRFLESQMVIEESILQSDKALTDREKAVAVDRAKKEAAEKEQELLKQKLQEQQQQMEAQVKSRKENIAQLKEKLQMEREHLLREQIMMLEHTQKVQNDWLHEGFKKKYEEMNAEISQFKRMIDTTKNDDTPWIARTLDNLADELTAILSAPAKLIGHGVKGVSSLFKKHKLPFKGGRADPAFLYKVVDLEGPRFEQKLISEEDLNMHTGHHHHHH
B6: AK096141: human guanylate binding protein HGBPBMY1, AA SEQ ID NO:3 (protein, listed as Homo sapiens)
chain: MASEIHMPGPVCLIENTKGHLVVNSEALEILSAITQPVVVVAIVGLYRTGKSYLMNKLAGKNKGFPLGCTVKSETKGIWMWCVPHPSKPNHTLILLDTEGLGDMEKSDPKSDSWIFALAVLLSSSFVYNSMGTINHQALEQLHYVTELTELIRAKSCPRPDEVEDSSEFVSFFPDFIWTVRDFTLELKLDGHPITEDEYLENALKLISGKNPQIQNSNKPREWIRHFFPKQKCFVFDRPINDKKLLLHVEEVREDQLDSNFQMQSENFCSYIFTHAKTKTLREGILVTGNRLGMLVETYLDAINSGATPCLENAMAVLAQCENSAAVQRAANHYSQQMAQQVRFPTDTLQELLDVHAVCEREAIAVFMEYSFKDKSQEFQKKLVDTMEKKKEDFVLQNEEASAKYCQAELKRLSELLTESISRGTFFVPGGHNIYLEAKKKIEQDYTLVPRKGVKADEVLQSFLQSQVVIEESILQSDKALTAGEKAIAAKQAKKEAAEKEQELLRQKQKEQQQMMEAQERSFQENIAQLKKKMERERENYMRELRKMLSHKMKVLEELLTEGFKEIFESLNEEINRLKEQIEAAENEEPSVFSQILDVAGSIFIAALPGAAKLVDLGMKILSSLCNRLRNPGKKIIS

What was measured:
GBP-1 = experiment: siRNA knockdown of GBP-1 protein expression in Cos-7 cells, myc western blot; format: cell-based; conditions: Cos-7 cells co-transfected with GBP-1 expression vector, 40 nM siRNA duplex; FIG. 50A
Experimental: (§1) To test for knockdown of protein expression using siRNAs, Cos-7 cells were transfected as described herein with expression vectors encoding either GBP-1 or GBP-2 in the presence and absence of 40 nM siRNA duplex specific for either GBP-1 (“1–3”, […], (SEQ ID NO:79), Qiagen, Inc.) or GBP-2 (“582”, […] (SEQ ID NO:80), Sequitur Inc., Natick, Mass.). Approximately 18 hours following transfection, cells were harvested using trypsin, and lysed in RIPA buffer as described previously. Lysates were electrophoresed through 4–20% tris-glycine gels, transferred to nitrocellulose, blocked overnight with 5% non-fat dry milk and 0.3% BSA in Tris-buffered saline, and probed with a mouse monoclonal antibody specific for the myc epitope tag.

MCP-1 = experiment: TNFα-induced MCP-1 expression in human umbilical vein endothelial cells, ELISA; format: cell-based; conditions: HUVECs, 100 nM siRNA duplexes, 6 hours 10 ng/ml TNFα; FIG. 50B
Experimental: (§2) In some experiments, human umbilical vein endothelial cells (HUVECs, Clonetics Corp., San Diego, Calif., USA) were transfected using lipofectamine 2000 with 100 nM siRNA duplexes. Cells were cultured overnight, and then stimulated for 6 hours with 10 ng/ml TNFα. Supernatants were analyzed for MCP-1 and IL-8 levels by ELISA (Pharmingen, San Diego, Calif., USA). Cytokine levels were corrected for cell number using the CELL TITER kit (Promega).

IL-8 = experiment: TNFα-induced IL-8 secretion in human umbilical vein endothelial cells, ELISA; format: cell-based; conditions: HUVECs, 100 nM siRNA duplexes, 6 hours 10 ng/ml TNFα
Experimental: as §2

GBP-2 = experiment: siRNA knockdown of GBP-2 protein expression in Cos-7 cells, myc western blot; format: cell-based; conditions: Cos-7 cells co-transfected with GBP-2 expression vector, 40 nM siRNA duplex; FIG. 50A
Experimental: as §1

[1] = Guanine nucleotide binding: Cos-7 lysates on agarose coated with GTP, myc western blot; conditions: myc-tagged protein expressed in Cos-7 cells; FIG. 49
Experimental: (§3) Genes encoding different GBP family members were cloned into the vector pcDNA3.1mychis (Invitrogen) for expression in mammalian cells. Cos-7 cells were transfected with 5 μg of DNA per group using lipofectamine 2000 (Invitrogen) according to manufacturer's instructions. Approximately 18 hours after transfection, the cells were harvested using trypsin and lysed in RIPA buffer (10 mM sodium phosphate pH 7.2, 0.25 M sodium chloride, 0.1% SDS, 1% NP40, 1% sodium deoxycholate, 2 mM EDTA, protease inhibitor cocktail). An aliquot of the lysate was reserved for the whole cell lysate sample. The remainder was divided in thirds, and incubated for three hours at 4° C. with agarose coated with either GTP, GDP, or GMP (Sigma Chemical Company). The beads were pelleted, washed with buffer (0.1% NP40, 150 mM NaCl, 50 mM Tris pH7.5), and resuspended in SDS sample buffer. Samples were electrophoresed through 4–20% tris-glycine gels, transferred to nitrocellulose, blocked overnight with 5% non-fat dry milk and 0.3% BSA in Tris-buffered saline, and probed with a mouse monoclonal antibody specific for the myc epitope tag (Invitrogen).

[2] = Guanine nucleotide binding: Cos-7 lysates on agarose coated with GDP, myc western blot; conditions: myc-tagged protein expressed in Cos-7 cells; FIG. 49
Experimental: as §3

[3] = Guanine nucleotide binding: Cos-7 lysates on agarose coated with GMP, myc western blot; conditions: myc-tagged protein expressed in Cos-7 cells; FIG. 49
Experimental: as §3

Molecule	knockdown of GBP-1 protein expression (GBP-1)	inhibition of TNFα-induced MCP-1 expression (MCP-1)	inhibition of IL-8 secretion (IL-8)	knockdown of GBP-2 protein expression (GBP-2)	binding to GTP agarose beads [1]	binding to GDP agarose beads [2]	binding to GMP agarose beads [3]
GCUCGAGAAACUACAAGAUTT, (SEQ ID NO:79) [1–3]	specific knockdown	70%	failed to inhibit	–	–	–	–
UUUGUAUUUCCUCCAACAUTT (SEQ ID NO:80) (chemistry not given here; listed as Homo sapiens) [Compound 582]	–	approximately 40%	failed to inhibit	specific knockdown	–	–	–
B1	–	–	–	–	bound well	bound well	bound well
B2	–	–	–	–	weakly	bound well	bound well
B3	–	–	–	–	weakly	bound well	bound well
B4	–	–	–	–	bound well	bound well	bound well
B5	–	–	–	–	did not bind	did not bind	did not bind
B6	–	–	–	–	not at all	bound weakly	bound weakly
